According to publication PMC5519985 (Nature Communications, 2017):
One block for each molecule: values may come before it.

Legend:
IL-4Rα (Homo sapiens) = IL-4Rα (Homo sapiens) (UniProt P24394); settings: cited from earlier work
IL-13Rα1 (Homo sapiens) = IL-13Rα1 (Homo sapiens) (UniProt P78552); settings: cited from earlier work
HaloTag-IL-13Rα1 = HaloTag-IL-13Rα1 (UniProt P78552); assay: particle image cross-correlation (PICCS) of single molecule localizations on live cells; HeLa cells co-expressing ^DY647IL-4Rα and ^TMRIL-13Rα1, without and with ligand; correlated fraction α; effective 2D constant by the law of mass action from α and the surface concentrations corrected for the degree of labelling
[1] = target: SNAPf-IL-13Rα1-TM (IL-13Rα1 truncated after the transmembrane domain); assay: single molecule co-localization and co-tracking (dual-colour TIRF microscopy); ^DY547IL-4Rα-TM and ^DY647IL-13Rα1-TM reconstituted into polymer-supported membranes (PSM); ligand from 10 pM up to 50 μM, 5 min equilibration; equilibrium model fitted to the dimerization curves
[2] = target: T1, IL-4Rα-EC/IL-4D binary complex on the SSM (UniProt P05112 25-153; P24394 26-232, H59Y | K84D, CoA-ATTO 488 on the ybbR-tag); assay: TIRFS-RIf (total internal reflection fluorescence spectroscopy with reflectance interference); SSM with IL-4Rα-EC and IL-13Rα1-EC; dissociation of ^AT488IL-4D while free IL-13Rα1-EC is blocked by injection of IL-13 (Supplementary Fig. 7); settings: both partners purified
T1 construct: interleukin-4; IL-4Rα, ectodomain; Chains as m2 and m10; source: formed on the solid-supported membrane from m2 and m10; not shown: ybbR-tag, N-terminal, kept; His10, C-terminal, kept
T1 sequence (looked up) 1: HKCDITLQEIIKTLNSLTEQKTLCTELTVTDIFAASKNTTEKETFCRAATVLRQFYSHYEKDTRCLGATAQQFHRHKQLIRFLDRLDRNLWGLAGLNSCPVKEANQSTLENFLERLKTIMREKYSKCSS
T1 sequence (looked up) 2: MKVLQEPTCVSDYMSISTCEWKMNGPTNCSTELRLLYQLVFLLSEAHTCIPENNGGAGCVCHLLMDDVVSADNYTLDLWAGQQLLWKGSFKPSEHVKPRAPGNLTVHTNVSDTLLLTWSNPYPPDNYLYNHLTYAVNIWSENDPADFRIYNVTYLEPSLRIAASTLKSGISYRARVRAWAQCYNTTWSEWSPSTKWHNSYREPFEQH

Molecule: IL-13/IL-13Rα1-EC complex (from UniProt P35225)
Kd (IL-4Rα (Homo sapiens)): 15 nM

Molecule: IL-4 (from UniProt P05112)
Kd (IL-13Rα1 (Homo sapiens)): 2500 nM

correlated fraction α (PICCS) (HaloTag-IL-13Rα1): 11%
effective 2D equilibrium dissociation constant (molecules μm^−2) (HaloTag-IL-13Rα1): 0.1
Molecule: IL-4/^DY647IL-4Rα binary complex in the plasma membrane of HeLa cells (from UniProt P05112 25-153; P24394 26-825)

2D equilibrium dissociation constant (molecules μm^−2) [1]: 1.6
Molecule: IL-4/^DY547IL-4Rα-TM binary complex in the PSM (from UniProt P05112 25-153)

binding result [2]: binds
B1: IL-13Rα1-EC (ectodomain of IL-13Rα1 with C-terminal decahistidine tag) (domain or fragment, UniProt P78552 22-343, looked up)
chain: GGGGAAPTETQPPVTNLSVSVENLCTVIWTWNPPEGASSNCSLWYFSHFGDKQDKKIAPETRRSIEVPLNERICLQVGSQCSTNESEKPSILVEKCISPPEGDPESAVTELQCIWHNLSYMKCSWLPGRNTSPDTNYTLYYWHRSLEKIHQCENIFREGQYFGCSFDLTKVKDSSFEQHSVQIMVKDNAGKIKPSFNIVPLTSRVKPDPPHIKNLSFHNDDLYVQWENPQNFISRCLFYEVEVNNSQTETHNVFYVQEAKCENPEFERNVENTSCFMVPGVLPDTLNTVRIRVKTNKLCYEDDKLWSNWSQEMSIGKKRNST
modifications: CoA-Alexa Fluor 568 on the ybbR-tag in the FRET experiments (^AF568IL-13Rα1-EC); else unlabelled
